Measured values: patent publication US20240391954A1, “MC4R AGONIST PEPTIDES” (The Regents of the University of Michigan, priority 2021, published 2024)
Starred links: 1 amine or outer side, 2 acyl side, 3 side chain; linkers in the order of their positions; H or OH if unused. Positions of bridges follow the written chain, without caps; N, C: chain ends. Non-standard residues stand in square brackets, D forms with d. Residues, ends and D or L forms follow the SMILES beside them. Primed or numbered codes have the meaning given here. dTyr(4-OMe)″ = O-methyl-D-tyrosine, COc1ccc(C[C@@H](N[*:1])C(=O)[*:2])cc1; dPhe(4-Br) = N[C@H](Cc1ccc(Br)cc1)C(=O)O; hCit = NC(=O)NCCCC[C@H](N)C(=O)O; Cit = NC(=O)NCCC[C@H](N)C(=O)O; Nle = CCCC[C@H](N)C(=O)O; Aib = CC(C)(N)C(=O)O

B1: CTX-1206 (peptide)
peptide: Ac-CGH[dF]RWC-NH2
modifications: disulfide 1-7
SMILES: CC(=O)N[C@H]1CSSC[C@@H](C(N)=O)NC(=O)[C@H](Cc2c[nH]c3ccccc23)NC(=O)[C@H](CCCNC(=N)N)NC(=O)[C@@H](Cc2ccccc2)NC(=O)[C@H](Cc2c[nH]cn2)NC(=O)CNC1=O
B2: CTX-1293 (peptide)
peptide: Ac-RCGR[dF]RWC-NH2
modifications: disulfide 2-8
SMILES: CC(=O)N[C@@H](CCCNC(=N)N)C(=O)N[C@H]1CSSC[C@@H](C(N)=O)NC(=O)[C@H](Cc2c[nH]c3ccccc23)NC(=O)[C@H](CCCNC(=N)N)NC(=O)[C@@H](Cc2ccccc2)NC(=O)[C@H](CCCNC(=N)N)NC(=O)CNC1=O
B3: CTX-1289 (peptide)
peptide: Ac-RC[Aib][Cit][dF]RWC-NH2
modifications: disulfide 2-8
B4: CTX-1618 (peptide)
peptide: Ac-R[Nle]C[hCit][dF]RWC-NH2
modifications: disulfide 3-8
SMILES: CCCC[C@H](NC(=O)[C@H](CCCNC(=N)N)NC(C)=O)C(=O)N[C@H]1CSSC[C@@H](C(N)=O)NC(=O)[C@H](Cc2c[nH]c3ccccc23)NC(=O)[C@H](CCCNC(=N)N)NC(=O)[C@@H](Cc2ccccc2)NC(=O)[C@H](CCCCNC(N)=O)NC1=O
B5: CTX-1625 (peptide)
peptide: Ac-R[Nle]CH[dF]RFC-NH2
modifications: disulfide 3-8
SMILES: CCCC[C@H](NC(=O)[C@H](CCCNC(=N)N)NC(C)=O)C(=O)N[C@H]1CSSC[C@@H](C(N)=O)NC(=O)[C@H](Cc2ccccc2)NC(=O)[C@H](CCCNC(=N)N)NC(=O)[C@@H](Cc2ccccc2)NC(=O)[C@H](Cc2c[nH]cn2)NC1=O
B6: CTX-1202 (peptide)
peptide: {CH2CO}-[dA]H[dF]RWC-NH2
modifications: thioether N-6
SMILES: C[C@H]1NC(=O)CSC[C@@H](C(N)=O)NC(=O)[C@H](Cc2c[nH]c3ccccc23)NC(=O)[C@H](CCCNC(=N)N)NC(=O)[C@@H](Cc2ccccc2)NC(=O)[C@H](Cc2c[nH]cn2)NC1=O
B7: CTX-1601 (peptide)
peptide: Ac-RC[Aib]R[dF]RFC-NH2
modifications: disulfide 2-8
B8: CTX-1290 (peptide)
peptide: Ac-RC[Aib][Cit][dF]R[dW]C-NH2
modifications: disulfide 2-8
B9: CTX-1637 (peptide)
peptide: Ac-CGH[dF]RFC-NH2
modifications: disulfide 1-7
SMILES: CC(=O)N[C@H]1CSSC[C@@H](C(N)=O)NC(=O)[C@H](Cc2ccccc2)NC(=O)[C@H](CCCNC(=N)N)NC(=O)[C@@H](Cc2ccccc2)NC(=O)[C@H](Cc2c[nH]cn2)NC(=O)CNC1=O
B10: CTX-1607 (peptide)
peptide: Ac-R[Nle]C[Cit][dF]RWC-NH2
modifications: disulfide 3-8
SMILES: CCCC[C@H](NC(=O)[C@H](CCCNC(=N)N)NC(C)=O)C(=O)N[C@H]1CSSC[C@@H](C(N)=O)NC(=O)[C@H](Cc2c[nH]c3ccccc23)NC(=O)[C@H](CCCNC(=N)N)NC(=O)[C@@H](Cc2ccccc2)NC(=O)[C@H](CCCNC(N)=O)NC1=O
B11: CTX-1658 (peptide)
peptide: {CH2CO}-[dA][Cit][dF]RFC-NH2
modifications: thioether N-6
B12: CTX-1297 (peptide)
peptide: Ac-RC[Aib]R[dTyr(4-OMe)″]R[dW]C-NH2
modifications: disulfide 2-8
B13: CTX-1655 (peptide)
peptide: {CH2CO}-G[Cit][dF]RFC-NH2
modifications: thioether N-6
B14: CTX-1652 (peptide)
peptide: {CH2CO}-[Aib][Cit][dF]RFC-NH2
modifications: thioether N-6
B15: CTX-1257 (peptide)
peptide: Ac-RC[dA]R[dF]R[dF]C-NH2
modifications: disulfide 2-8
SMILES: CC(=O)N[C@@H](CCCNC(=N)N)C(=O)N[C@H]1CSSC[C@@H](C(N)=O)NC(=O)[C@@H](Cc2ccccc2)NC(=O)[C@H](CCCNC(=N)N)NC(=O)[C@@H](Cc2ccccc2)NC(=O)[C@H](CCCNC(=N)N)NC(=O)[C@@H](C)NC1=O
B16: CTX-1292 (peptide)
peptide: Ac-RC[Aib]R[dF]RWC-NH2
modifications: disulfide 2-8
B17: CTX-1299 (peptide)
peptide: Ac-RC[Aib][Cit][dTyr(4-OMe)″]RFC-NH2
modifications: disulfide 2-8
B18: CTX-1288 (peptide)
peptide: Ac-RCA[Cit][dF]R[dW]C-NH2
modifications: disulfide 2-8
B19: CTX-1298 (peptide)
peptide: Ac-RC[Aib]R[dTyr(4-OMe)″]RFC-NH2
modifications: disulfide 2-8
B20: CTX-1294 (peptide)
peptide: Ac-RCG[Cit][dF]RWC-NH2
modifications: disulfide 2-8

What was measured:
human MC4R = target: T1, human MC4R (Homo sapiens, UniProt P32245); assay: split-luciferase cAMP sensor assay, agonist mode (measurement window 1), hMC4R; type: cell-based
T1 construct: host or cells: HEK-293 cells stably expressing the GScAMP22F split-luciferase cAMP sensor and hMC4R, G418 selection
T1 sequence (P32245 whole entry): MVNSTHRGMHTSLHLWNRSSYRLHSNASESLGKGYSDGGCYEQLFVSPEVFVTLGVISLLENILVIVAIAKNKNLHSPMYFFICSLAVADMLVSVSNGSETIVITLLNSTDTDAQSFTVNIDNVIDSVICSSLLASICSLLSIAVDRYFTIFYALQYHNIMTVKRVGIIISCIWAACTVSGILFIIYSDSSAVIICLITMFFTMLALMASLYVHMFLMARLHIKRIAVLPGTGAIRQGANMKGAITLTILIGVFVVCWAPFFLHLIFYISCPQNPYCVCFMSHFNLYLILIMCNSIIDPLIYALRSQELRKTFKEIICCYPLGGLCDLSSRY
Outline: (§1)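 Live stable cell lines carrying receptor plus GloSensor cAMP22f split-luciferase, loaded with 4% D-luciferin in serum-free medium (~1% serum estimated during assay). Luminescence recorded during in-line peptide addition; direct agonist effect read in window 1, with 20 μM forskolin as normalization reference. EC50 from four-parameter sigmoid fit.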

human MC3R [1] = target: T2, human MC3R (Homo sapiens, UniProt P41968); assay: split-luciferase cAMP sensor assay, agonist mode (measurement window 1), hMC3R; type: cell-based; conditions: agonist mode, hMC3R stable cell line
T2 construct: expressed in transfected cells; host or cells: HEK-293 cells stably expressing the GScAMP22F split-luciferase cAMP sensor (parent reporter line from Promega); MC3R clone generated in-house, G418 selection
T2 sequence (P41968 whole entry): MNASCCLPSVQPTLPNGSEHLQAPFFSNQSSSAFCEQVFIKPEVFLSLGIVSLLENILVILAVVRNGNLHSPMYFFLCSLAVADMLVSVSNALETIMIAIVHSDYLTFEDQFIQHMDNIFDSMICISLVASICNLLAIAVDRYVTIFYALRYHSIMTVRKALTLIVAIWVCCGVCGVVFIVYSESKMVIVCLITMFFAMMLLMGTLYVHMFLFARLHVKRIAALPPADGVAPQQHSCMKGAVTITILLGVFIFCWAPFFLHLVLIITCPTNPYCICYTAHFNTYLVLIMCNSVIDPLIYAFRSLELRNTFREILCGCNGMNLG
Outline: as §1

human MC3R [2] = target: human MC3R (human, UniProt P41968 1-323); assay: cell-based or functional assay
human MC3R (human, UniProt P41968 1-323), sequence (P41968 whole entry): as above

human MC4R receptor [3] = target: T3, human MC4R receptor (human, UniProt P32245 1-332); assay: cell-based or functional assay
T3 sequence (P32245 whole entry): as the sequence (P32245 whole entry) above

human MC4R receptor [4] = target: T3, human MC4R receptor; assay: cell-based or functional assay; remark: listed apart in the source

Molecule | MC4R selectivity vs MC1R (human MC4R) | MC4R selectivity vs MC3R (human MC4R) | MC4R cAMP % max activation (human MC4R; agonist mode, hMC4R stable cell line) | EC50 (human MC4R; agonist mode, hMC4R stable cell line, read-out: MC4R cAMP EC50) | MC3R cAMP % max activation (human MC3R [1]) | % max activation (human MC3R [2]) | cAMP EC50 (human MC3R [2]) | % max activation (human MC4R receptor [3]) | MC4R selectivity vs MC3R (human MC4R receptor [4]) | cAMP EC50 (human MC4R receptor [3]) | MC4R selectivity vs MC1R (human MC4R receptor [4])
CCCC[C@H](NC(=O)[C@H](CCCNC(=N)N)NC(C)=O)C(=O)N[C@H]1CSSC[C@@H](C(N)=O)NC(=O)[C@@H](Cc2c[nH]c3ccccc23)NC(=O)[C@H](CCCNC(=N)N)NC(=O)[C@@H](Cc2ccc(Br)cc2)NC(=O)[C@H](CCCNC(=N)N)NC1=O [CTX-1232, Arg-Nle-cyclo(Cys-Arg-D-Phe(4-Br)-Arg-D-Trp-Cys)] (Ac-R[Nle]CR[dPhe(4-Br)]R[dW]C-NH2; disulfide 3-8 (inferred)) | 0.39 | 2.44 | (46%) | 2.4 nM | (41%) |  |  |  |  |  | 
B1 |  |  |  |  |  | 94% | 12 nM | 101% | 23 |  | 
B2 |  |  |  |  |  |  |  | 87% |  | 0.25 nM | 
B3 |  |  |  |  |  | 21% | 17 nM | 93% | 30 | 0.6 nM | 130
B4 |  |  |  |  |  | 33% | 29 nM |  |  |  | 
B5 |  |  |  |  |  |  |  | 101% |  | 38 nM | 
B6 |  |  |  |  |  | 101% | 130 nM | 104% |  | 0.65 nM | 0.89
B7 |  |  |  |  |  | 73% | 26 nM | 97% | 2.3 | 11 nM | 0.93
B8 |  |  |  |  |  | 20% | 1040 nM | 88% | 9.23 | 112 nM | 10
B9 |  |  |  |  |  | 98% | 68 nM |  |  |  | 
B10 |  |  |  |  |  | 47% | 14 nM |  |  |  | 
B11 |  |  |  |  |  |  | > 10000 nM |  |  | > 10000 nM | 
B12 |  |  |  |  |  |  | > 10000 nM | 97% | > 3000 | 3.3 nM | 0.52
B13 |  |  |  |  |  |  | > 10000 nM |  |  | > 10000 nM | 
B14 |  |  |  |  |  |  | > 10000 nM |  |  | > 10000 nM | 
B15 |  |  |  |  |  |  | 44 nM |  |  |  | 0.02
B16 |  |  |  |  |  | 76% | 3.3 nM | 90% | 21 | 0.16 nM | 2.46
B17 |  |  |  |  |  |  | > 10000 nM | 78% | > 154 | 65 nM | 3.66
B18 |  |  |  |  |  | 36% | 1250 nM | 87% | 16 | 77 nM | 3.75
B19 |  |  |  |  |  |  | > 10000 nM | 93% | 0.93 | 3.3 nM | 0.12
B20 |  |  |  |  |  | 33% | 40 nM | 102% | 11 | 3.5 nM | 111
